Results published in the supplement of paper PMC9170038.

These sequences were tested on K4 kissing-loop RNA reporter (assay: apparent KD of K4 kissing-loop reporter; higher = weaker reporter binding). Details: Eterna round: R107; input ligand: arginine 13.2 mM.
Procedure: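 RNA-MaP round R107: designed RNA switches with theophylline, tryptophan, arginine or FMN aptamers are transcribed on-chip within common flanks. They are titrated with a labelled K4 kissing-loop RNA reporter in RNA-MaP buffer (100 mM Tris pH 7.5, 80 mM KCl, 4 mM MgCl2), without ligand or with the indicated ligand. Median apparent KD per design.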
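Further: bound reporter read as fluorescence of individual clusters on recovered sequencing chips by microscopy, with normalized cluster intensities fitted with a binding model.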

Point of comparison: “AAACGCUUGAAUAACAAGCGAAUAAAUUCGCGAGGACCGGUACGGCCGCCACUCGCUAACUGCGAGUGAUGUUCGAUAAUAAAAU [Mat - Mod of OpenEnded 3 - D14]”, “apparent KD of K4 kissing-loop reporter” value 91.8 nM. Against it:
- AGUGAUGUAUGGCGGUUUGUCACUUAUUAUCAGGAUAUAUAAACAAAUAGAAGGGAUGGCGGAGUGAUGUUCCGCCGGCCGCCAU [FMN A Exl V5] — 1.5-fold higher, 140 nM
- AGAACUGUCUUGGAUACCAGUGAUGUUGGUAUCUGUGUGUGAGUGCAAAGCGUCCCACAUUGCCCUUGGCAGCUAAGACUGUUCA [Omei KL Theo B Exc A v1] — within 1.5-fold, 129 nM
- UUUGAAAUGACUGAUACCAGUGAAAAUAUAUGUAGUGAUGUUAUAUACUAAUUUAAUAAGCGCCCUUGGCAGCAGUAUGAAUUAU [AstrosExc-theB#16] — 6.2-fold higher, 565 nM
- GCGAGUUUGCAAGGAUAUCGACCGUCGUACGACCAGUGAUGUUGGGAGUACUUUCAAAAUCGAUUUCGAGAAGGUGCUGGCAUCA [theeternabot_sameState_KL_FMN_B_12] — 2.3-fold higher, 212 nM
- UAAUAUAAUCUGUCGUAAACAAUAAUUAGUCAGGAUAUCGUAUAUUCGAGAAGGGACACUAUCUAGUGAUGUUAGAUAUUUCGUU [JR_SSFMNA_Sub026] — within 1.5-fold, 76.4 nM
- GCGGGCCCUGGAGGAUAUGAGUCGAGUGAUGUUCGGCGGUCCAUGCCGAUGCGGCGUUAUGCCCUUUUAGAAGGCCAGGGCCCGC [#2 Exclusion - FMN B Attempt #7 (HarryS)] — 2.6-fold higher, 236 nM
- GGUUCUGGAAUCGAGUGAUGUUCGGUGUUGCAGGAUAUAGAGAGAUCUAGAAGGGCAGUUUGUAUUUUAUUGAGUGAUUUUCUUU [Last Minute #3] — within 1.5-fold, 83.1 nM
- AUCGUUGUCUGAGGAUAUCGGUUAACUGUAGUGAUGUUACAGAAAAUUCAUAUAAUAUUUUCUAUUCGAGAAGGCAGACUACGUA [JR_ExcFMNB_Sub018] — 1.7-fold higher, 157 nM
- GCUAUGGUAGGAAGGAGCGCUUGUUCGGUCAUAUGAGUGAUGUUCGAGACUGAGCAUUUAUAGCAGGUAGGUCGCCUACUAUAGC [Arginine B K4 10] — 1.9-fold higher, 179 nM
- GCAAUUCUCAGUGAUGUUGAGUAAUCGGAAGGAGCGCGUGAAAACGCAGGUAGGUCGCCGAAACAUGAAGUAUCUUCGUGUUUGC [Arginine A K4 24] — 2.1-fold higher, 190 nM
- GGAUUUGAGUGAUGUUUAAAACGAGUGUCCAAGGAUAUUGCCCAAACAAGAAGGUGGGCAUGCUUUUGCGAUAAUCAACGGAGAC [theeternabot_exclusion_KL_FMN_A_9] — 7.3-fold higher, 666 nM
- GUAGGAUGAGGAGGAGGAUGAAUUACUGAAGGAGCGCAUAUUUUUGCAGGUAGGUCGCGGUAAAGAAGUAUAGUGAUGUUAUAUA [SSArgA.J] — 4.7-fold higher, 434 nM
- CGUUUAUAGCAGGAUACCAGUACCCAUAAAGUACGUUAAUAGUAGAGUGAUGUUCUAAAGUACCCUUGGCAGCUUCCAGUGAGUG [ExTheophylB.S] — 1.7-fold higher, 157 nM
- GGGUGGCAGGCGGCCGCCACUCUUAGCAGCCAGUGAGUGAUGUUCGUGGCGGAAGAAUGUUCGUAGAGGACCGGGUUUGUUGUUC [Same State Tryptophan B GF 21] — 2-fold higher, 180 nM
- UUUUACGAGUGAUGUUCGUAAUGUAAUAGUUAGGAUAUCGUUUUUUCGAGAAGGAACUUCGAAGUGAUACGAAAGUAUCGCUUCG [FMN A 9] — 1.7-fold higher, 160 nM
- GGUGGACUAGUCGAGUGAUGUUCGAGGCAUCGAGGACCGGUACGGCCGCCACUCGCAAAUCUACCGUGCGUUAACCACCAAAGUG [theeternabot_sameState_KL_Trp_A_37] — 1.7-fold higher, 152 nM
- UUGAUAUGAUAGUAUCUUGUUUGAUAAAGGCAGGAUAUCGUAUAUUUGAGAAGGGCCAUUAUAUGCAGUGAUGUUGCAAAUAAGU [Exclusion FMN A Gf 25] — 1.6-fold lower, 56.7 nM
- ACUGGGUUGACGAAAGUCAACAAAUGAGAAGGAGCGCACGAAAGUGCAGGUAGGUCGCUCAUUCCAGUGAUGUUGGAUCACCAGA [#SwitchBubble 19 #K4Late] — 5-fold higher, 456 nM
- GAGAGCUCUGGAGGAUAUGAGUCUAGUGAUGUUAGGCGGUCCAUGCGCGUGGCGCGUUAUGCCCUUUUAGAAGGCCAGAGCUCUC [#2 Exclusion - FMN B Attempt #19 (HarryS)] — within 1.5-fold, 69.3 nM
- CUGGGUUGACGAAAAGUCAACAAACGAGAAGGAGCGCACGAAAGUGCAGGUAGGUCGCUCAGUCCAGUGAUGUUGGAACAUCCAG [#SwitchBubble 8 #K4Late] — 5.4-fold higher, 498 nM
- GGGCCUGGGCCCGGAAGGGCCUGGGCCCGUUAGGAUAUGACGUGAUUCAGAAGGGAUGGGUGGAGUGAUGUUCCACCCGAGAGGG [#2 Same State - FMN A Attempt #25 (HarryS)] — within 1.5-fold, 90.5 nM
- GAUAUAGUGAUGUUAUAUAGGAAGGAGUUACGAGGACCGGUACGGCCGCCACUCGAAACGAGUGAUGAUUUGGGAGAUUGGGUUG [SSTryptA.P] — 3.9-fold higher, 359 nM
- UGACUGGACUGAAGGAGCGCUAAAACUCCUAGUGAUGUUAGGAAAACGAGACAAAGUCUCGAGCAGGUAGGUCGCAGUCUAGUCU [ArgBS 21 #SwitchBubble #StaticStem] — within 1.5-fold, 119 nM

Same assay, conditions: Eterna round: R107; input ligand: none

Point of comparison: “CGUUUAUAGCAGGAUACCAGUACCCAUAAAGUACGUUAAUAGUAGAGUGAUGUUCUAAAGUACCCUUGGCAGCUUCCCGUGACCC [ExTheophylB.W]”, “apparent KD of K4 kissing-loop reporter” value 133 nM. Against it:
- CGCAGUGAUGUUGCGAAUAUAAUCACGGAAGGAGCGCGUGAAAACGCAGGUAGGUCGCCGUGUGGUAUGAUGGAAACAUCGUACC [Arginine A K4 12] — 1.8-fold higher, 243 nM
- ACACUCGGCUCGGCCGCCACUCCAGUGAUGUUGGAGUCAUAGCUAUGACGAGAAGAGCGUUUUCGGAGGACCGGGAGCUCACAGG [Leveeder] — 2.7-fold higher, 359 nM
- AUCCGAGAAUAUGAUACCAGCUGAGUGUAUCAAGACCGUAUCUCCCGUGCUAGUGAUGUUAGCCCUUGGCAGCAUAUGAAAGCGG [theeternabot_exclusion_KL_Theo_B_15] — 3.5-fold higher, 467 nM
- UAGUCUCGAGUCUGAGAUUACGGGUCAGAUACCAGACUAGAGAUAGUCCCUUGGCAGCUGAAGUUCAGUGAUGUUGAACGGAUUA [Theo B SS t10a] — 3.3-fold higher, 441 nM
- AAUUAAUGUAUAGAUUAUAUACAUUAAUCAGAGGAUAUGCUUUGUUGCAGAAGGCUGAAUGCAGUGAUGUUGCAAUUUUAAUUUA [JR_SSFMNA_Sub005] — 2.4-fold lower, 54.7 nM
- CGCAAGCAGCCAGUGAUGUUGGCCGCCUUGCGAGGACCGGUACGGCCGCCACUCGAAGGCGGCUACUGAUAAACCGUCUAACGGA [KL-XTryp-A9] — within 1.5-fold, 105 nM
- ACGUUCGGAACGGCCGCCACUAUGGGCAGUGAUGUUGCCCAUAACCGGUUUUGCGUCAGAUCCCUUAGGACCGGGUUCUGGUAUA [Soonlesoso] — 1.8-fold lower, 73.4 nM
- AGUGAUGUAUGGCGGUUUGUCACUUAUUAUCAGGAUAUAUAAACAAAUAGAAGGGAUGGCGGAGUGAUGUUCCGCCGGCCGCCAU [FMN A Exl V5] — within 1.5-fold, 150 nM
- AGAACUGUCUUGGAUACCAGUGAUGUUGGUAUCUGUGUGUGAGUGCAAAGCGUCCCACAUUGCCCUUGGCAGCUAAGACUGUUCA [Omei KL Theo B Exc A v1] — within 1.5-fold, 137 nM
- UUUGAAAUGACUGAUACCAGUGAAAAUAUAUGUAGUGAUGUUAUAUACUAAUUUAAUAAGCGCCCUUGGCAGCAGUAUGAAUUAU [AstrosExc-theB#16] — 7-fold higher, 927 nM
- GCGAGUUUGCAAGGAUAUCGACCGUCGUACGACCAGUGAUGUUGGGAGUACUUUCAAAAUCGAUUUCGAGAAGGUGCUGGCAUCA [theeternabot_sameState_KL_FMN_B_12] — 1.9-fold higher, 250 nM
- UAAUAUAAUCUGUCGUAAACAAUAAUUAGUCAGGAUAUCGUAUAUUCGAGAAGGGACACUAUCUAGUGAUGUUAGAUAUUUCGUU [JR_SSFMNA_Sub026] — 2.5-fold lower, 53.4 nM
- GCGGGCCCUGGAGGAUAUGAGUCGAGUGAUGUUCGGCGGUCCAUGCCGAUGCGGCGUUAUGCCCUUUUAGAAGGCCAGGGCCCGC [#2 Exclusion - FMN B Attempt #7 (HarryS)] — 2.3-fold higher, 310 nM
- GGUUCUGGAAUCGAGUGAUGUUCGGUGUUGCAGGAUAUAGAGAGAUCUAGAAGGGCAGUUUGUAUUUUAUUGAGUGAUUUUCUUU [Last Minute #3] — within 1.5-fold, 106 nM
- AUCGUUGUCUGAGGAUAUCGGUUAACUGUAGUGAUGUUACAGAAAAUUCAUAUAAUAUUUUCUAUUCGAGAAGGCAGACUACGUA [JR_ExcFMNB_Sub018] — within 1.5-fold, 167 nM
